From patent US20180291110A1 (Hoffmann-La Roche, published 2018)

Molecular target: T1, human transferrin receptor (recombinant, for surface plasmon resonance) (human, UniProt P02786 89-760)
T1 construct: also called huTfR; human transferrin receptor-biotinylated
Test: SPR 25C

T1 sequence (P02786 89-760 limits assumed): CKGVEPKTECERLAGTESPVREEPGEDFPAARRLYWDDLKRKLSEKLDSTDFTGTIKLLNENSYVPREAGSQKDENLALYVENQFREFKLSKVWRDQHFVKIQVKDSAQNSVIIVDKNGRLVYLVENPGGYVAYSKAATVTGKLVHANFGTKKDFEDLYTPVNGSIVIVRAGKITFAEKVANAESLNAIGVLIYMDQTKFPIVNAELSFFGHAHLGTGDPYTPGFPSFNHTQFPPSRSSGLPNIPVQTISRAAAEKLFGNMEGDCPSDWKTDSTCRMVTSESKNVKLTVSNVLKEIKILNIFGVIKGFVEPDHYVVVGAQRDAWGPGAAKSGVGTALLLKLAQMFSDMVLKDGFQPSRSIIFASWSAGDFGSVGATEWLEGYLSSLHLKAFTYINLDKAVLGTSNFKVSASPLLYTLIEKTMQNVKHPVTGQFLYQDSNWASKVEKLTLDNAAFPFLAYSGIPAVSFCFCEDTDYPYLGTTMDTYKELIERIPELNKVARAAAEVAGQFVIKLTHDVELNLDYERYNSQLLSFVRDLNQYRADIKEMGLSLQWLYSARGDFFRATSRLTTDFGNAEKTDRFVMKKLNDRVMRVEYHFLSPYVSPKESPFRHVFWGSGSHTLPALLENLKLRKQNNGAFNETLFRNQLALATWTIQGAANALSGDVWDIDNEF

koff [s⁻¹] | Binder
0.00756 | 2/99 VH1/VL17 (antibody, V domains shown) VH: VQLVETGGGLIQPGGSLRLSCAASGFSLSSYAMSWVRQAPGKGLEWVGYIWSGGSTDYADSVKGRFTISRDNSKNTLYLQMNSLRAEDTAVYYCARRYGTSYPDYGDANGFDPWGQGTLVTVSS VL: AIQLTQSPSSLSASVGDRVTITCRASQSISSYLAWYQQKPGKAPKLLIYRASTLASGVPSRFSGSGSGTDFTLTISSLQPEDFATYYCQQTYSSSNVDNTFGGGTKVEIK
0.00712 | 2/99 VH2/VL17 (antibody, V domains shown) VH: EVQLVETGGGLIQPGGSLRLSCAASGFSLSSYAMSWVRQAPGKGLEWVGYIWSGGSTDYADSVKGRFTISRDNSKNTLYLQMNSLRAEDTAVYYCARRYGTSYPDYGDANGFDPWGQGTLVTVSS VL: AIQLTQSPSSLSASVGDRVTITCRASQSISSYLAWYQQKPGKAPKLLIYRASTLASGVPSRFSGSGSGTDFTLTISSLQPEDFATYYCQQTYSSSNVDNTFGGGTKVEIK
0.00112 | 2/99 VH22/VL14 (antibody, V domains shown) VH: QSMQESGPGLVKPSQTLSLTCTVSGFSLSSYAMSWVRQHPGKGLEWIGYIWSGGSTDYASWAKSRVTISVDTSKNQVSLKLSSVTAADTAVYYCARRYGTSYPDYGDANGFDPWGQGTLVTVSS VL: DIVMTQSPDSLAVSLGERATINCKSSQSISSYLSWYQQKPGQRPKLLIYRASTLASGVPDRFSGSGSGTDFTLTISSLQAEDVAVYYCQQSYSSSNVDNTFGGGTKVEIK
0.000733 | 2/99 VH23-DANG/VL14 (antibody, V domains shown) VH: QSMQESGPGLVKPSQTLSLTCTVSGFSLSSYAMSWIRQHPGKGLEWIGYIWSGGSTDYASWAKSRVTISKTSTTVSLKLSSVTAADTAVYYCARRYGTSYPDYGDANGFDPWGQGTLVTVSS VL: DIVMTQSPDSLAVSLGERATINCKSSQSISSYLSWYQQKPGQRPKLLIYRASTLASGVPDRFSGSGSGTDFTLTISSLQAEDVAVYYCQQSYSSSNVDNTFGGGTKVEIK
0.00739 | 2/99 VH9/VL15 (antibody, V domains shown) VH: QQLLESGGGLVQPGGSLRLSCAASGFTFSSYAMSWVRQAPGKGLEWVGYIWSGGSTDYADSVKGRFTISRDNSKNTLYLQMNSLRAEDTAVYYCAKRYGTSYPDYGDANGFDPWGQGTLVTVSS VL: DIVMTQSPDSLAVSLGERATINCKSSQSISSYLIWYQQKPGQPPKLLIYRASTLASGVPDRFSGSGSGTDFTLTISSLQAEDVAVYYCQQAYSSSNVDNTFGGGTKVEIK
0.001 | 2/99 VH19/VL15 (antibody, V domains shown) VH: QSMQESGPGLVKPSQTLSLTCTVSGFSLSSYAMSWIRQHPGKGLEWIGYIWSGGSTDYAPSLKSRVTISVDTSKNQFSLKLSSVTAADTAVYYCARRYGTSYPDYGDANGFDPWGQGTLVTVSS VL: DIVMTQSPDSLAVSLGERATINCKSSQSISSYLIWYQQKPGQPPKLLIYRASTLASGVPDRFSGSGSGTDFTLTISSLQAEDVAVYYCQQAYSSSNVDNTFGGGTKVEIK
0.00477 | 2/99 VH16/VL15 (antibody, V domains shown) VH: QQLQESGPGLVKPSETLSLTCTVSGFSLSSYAMSWVRQPPGKGLEWIGYIWSGGSTDYNPSLKSRVTISVDTSKNQVSLKLSSVTAADTAVYYCARRYGTSYPDYGDANGFDPWGPGTLVTVSS VL: DIVMTQSPDSLAVSLGERATINCKSSQSISSYLIWYQQKPGQPPKLLIYRASTLASGVPDRFSGSGSGTDFTLTISSLQAEDVAVYYCQQAYSSSNVDNTFGGGTKVEIK
0.00192 | 2/99 VH21/VL15 (antibody, V domains shown) VH: QSMQESGPGLVKPSQTLSLTCTVSGFSLSSYAMSWIRQHPGKGLEWIGYIWSGGSTDYASWAKSRVTISVDTSKNQVSLKLSSVTAADTAVYYCARRYGTSYPDYGDANGFDPWGQGTLVTVSS VL: DIVMTQSPDSLAVSLGERATINCKSSQSISSYLIWYQQKPGQPPKLLIYRASTLASGVPDRFSGSGSGTDFTLTISSLQAEDVAVYYCQQAYSSSNVDNTFGGGTKVEIK
0.00638 | 2/99 VH2/VL15 (antibody, V domains shown) VH: EVQLVETGGGLIQPGGSLRLSCAASGFSLSSYAMSWVRQAPGKGLEWVGYIWSGGSTDYADSVKGRFTISRDNSKNTLYLQMNSLRAEDTAVYYCARRYGTSYPDYGDANGFDPWGQGTLVTVSS VL: DIVMTQSPDSLAVSLGERATINCKSSQSISSYLIWYQQKPGQPPKLLIYRASTLASGVPDRFSGSGSGTDFTLTISSLQAEDVAVYYCQQAYSSSNVDNTFGGGTKVEIK
0.00637 | 2/99 VH5/VL15 (antibody, V domains shown) VH: QSMEETGGGLIQPGGSLRLSCAASGFSLSSYAMSWVRQAPGKGLEWVGYIWSGGSTDYADSVKGRFTISRDNSKNTLYLQMNSLRAEDTAVYYCARRYGTSYPDYGDANGFDPWGPGTLVTVSS VL: DIVMTQSPDSLAVSLGERATINCKSSQSISSYLIWYQQKPGQPPKLLIYRASTLASGVPDRFSGSGSGTDFTLTISSLQAEDVAVYYCQQAYSSSNVDNTFGGGTKVEIK
0.00421 | 2/99 VH6/VL15 (antibody, V domains shown) VH: QQLVETGGGLIQPGGSLRLSCAASGFSLSSYAMSWVRQAPGKGLEWIGYIWSGGSTDYADSVKGRFTISRDNSKNTLYLQMNSLRAEDTAVYYCARRYGTSYPDYGDANGFDPWGQGTLVTVSS VL: DIVMTQSPDSLAVSLGERATINCKSSQSISSYLIWYQQKPGQPPKLLIYRASTLASGVPDRFSGSGSGTDFTLTISSLQAEDVAVYYCQQAYSSSNVDNTFGGGTKVEIK
0.00156 | 2/99 VH17/VL15 (antibody, V domains shown) VH: QQLQESGPGLVKPSETLSLTCTVSGFSLSSYAMSWVRQPPGKGLEWIGYIWSGGSTDYNPSLKSRVTISKDTSKNQVSLKLSSVTAADTAVYYCARRYGTSYPDYGDANGFDPWGPGTLVTVSS VL: DIVMTQSPDSLAVSLGERATINCKSSQSISSYLIWYQQKPGQPPKLLIYRASTLASGVPDRFSGSGSGTDFTLTISSLQAEDVAVYYCQQAYSSSNVDNTFGGGTKVEIK
0.00711 | 2/99 VH13/VL15 (antibody, V domains shown) VH: QVQLQESGPGLVKPSETLSLTCTVSGFSLSSYAMSWIRQPPGKGLEWIGYIWSGGSTDYNPSLKSRVTISVDTSKNQVSLKLSSVTAADTAVYYCARRYGTSYPDYGDANGFDPWGQGTLVTVSS VL: DIVMTQSPDSLAVSLGERATINCKSSQSISSYLIWYQQKPGQPPKLLIYRASTLASGVPDRFSGSGSGTDFTLTISSLQAEDVAVYYCQQAYSSSNVDNTFGGGTKVEIK
0.00669 | 2/99 VH1/VL15 (antibody, V domains shown) VH: VQLVETGGGLIQPGGSLRLSCAASGFSLSSYAMSWVRQAPGKGLEWVGYIWSGGSTDYADSVKGRFTISRDNSKNTLYLQMNSLRAEDTAVYYCARRYGTSYPDYGDANGFDPWGQGTLVTVSS VL: DIVMTQSPDSLAVSLGERATINCKSSQSISSYLIWYQQKPGQPPKLLIYRASTLASGVPDRFSGSGSGTDFTLTISSLQAEDVAVYYCQQAYSSSNVDNTFGGGTKVEIK
0.00179 | 2/99 VH22/VL15 (antibody, V domains shown) VH: QSMQESGPGLVKPSQTLSLTCTVSGFSLSSYAMSWVRQHPGKGLEWIGYIWSGGSTDYASWAKSRVTISVDTSKNQVSLKLSSVTAADTAVYYCARRYGTSYPDYGDANGFDPWGQGTLVTVSS VL: DIVMTQSPDSLAVSLGERATINCKSSQSISSYLIWYQQKPGQPPKLLIYRASTLASGVPDRFSGSGSGTDFTLTISSLQAEDVAVYYCQQAYSSSNVDNTFGGGTKVEIK
0.00273 | 2/99 VH7/VL15 (antibody, V domains shown) VH: QQLVETGGGLIQPGGSLRLSCAASGFSLSSYAMSWVRQAPGKGLEWIGYIWSGGSTDYASWAKGRFTISRDNSKNTLYLQMNSLRAEDTAVYYCARRYGTSYPDYGDANGFDPWGQGTLVTVSS VL: DIVMTQSPDSLAVSLGERATINCKSSQSISSYLIWYQQKPGQPPKLLIYRASTLASGVPDRFSGSGSGTDFTLTISSLQAEDVAVYYCQQAYSSSNVDNTFGGGTKVEIK
0.00785 | 2/99 VH20/VL15 (antibody, V domains shown) VH: QSMQESGPGLVKPSQTLSLTCTVSGFSLSSYAMSWIRQHPGKGLEWIGYIWSGGSTDYAPSLKSRVTISVDTSKNQVSLKLSSVTAADTAVYYCARRYGTSYPDYGDANGFDPWGQGTLVTVSS VL: DIVMTQSPDSLAVSLGERATINCKSSQSISSYLIWYQQKPGQPPKLLIYRASTLASGVPDRFSGSGSGTDFTLTISSLQAEDVAVYYCQQAYSSSNVDNTFGGGTKVEIK
0.00758 | 2/99 VH18/VL15 (antibody, V domains shown) VH: QVQLQESGPGLVKPSQTLSLTCTVSGFSLSSYAMSWIRQHPGKGLEWIGYIWSGGSTDYAPSLKSRVTISVDTSKNQFSLKLSSVTAADTAVYYCARRYGTSYPDYGDANGFDPWGQGTLVTVSS VL: DIVMTQSPDSLAVSLGERATINCKSSQSISSYLIWYQQKPGQPPKLLIYRASTLASGVPDRFSGSGSGTDFTLTISSLQAEDVAVYYCQQAYSSSNVDNTFGGGTKVEIK
0.00603 | 2/99 VH15/VL15 (antibody, V domains shown) VH: QQLQESGPGLVKPSETLSLTCTVSGFSLSSYAMSWVRQPPGKGLEWIGYIWSGGSTDYNPSLKSRVTISVDTSKNQVSLKLSSVTAADTAVYYCARRYGTSYPDYGDANGFDPWGQGTLVTVSS VL: DIVMTQSPDSLAVSLGERATINCKSSQSISSYLIWYQQKPGQPPKLLIYRASTLASGVPDRFSGSGSGTDFTLTISSLQAEDVAVYYCQQAYSSSNVDNTFGGGTKVEIK
0.00776 | 2/99 VH12/VL15 (antibody, V domains shown) VH: QVQLQESGPGLVKPSETLSLTCTVSGFSLSSYAMSWIRQPPGKGLEWIGYIWSGGSTDYNPSLKSRVTISVDTSKNQFSLKLSSVTAADTAVYYCARRYGTSYPDYGDANGFDPWGQGTLVTVSS VL: DIVMTQSPDSLAVSLGERATINCKSSQSISSYLIWYQQKPGQPPKLLIYRASTLASGVPDRFSGSGSGTDFTLTISSLQAEDVAVYYCQQAYSSSNVDNTFGGGTKVEIK
0.00709 | 2/99 VH11/VL15 (antibody, V domains shown) VH: QQLLESGGGLVQPGGSLRLSCAASGFSLSSYAMSWVRQAPGKGLEWVGYIWSGGSTDYADSVKGRFTISRDNSKNTLYLQMNSLRAEDTAVYYCARRYGTSYPDYGDANGFDPWGQGTLVTVSS VL: DIVMTQSPDSLAVSLGERATINCKSSQSISSYLIWYQQKPGQPPKLLIYRASTLASGVPDRFSGSGSGTDFTLTISSLQAEDVAVYYCQQAYSSSNVDNTFGGGTKVEIK
0.00181 | 2/99 VH8/VL15 (antibody, V domains shown) VH: QQLVETGGGLIQPGGSLRLSCAASGFSLSSYAMSWVRQAPGKGLEWIGYIWSGGSTDYASWAKGRFTISKTSTTLYLQMNSLRAEDTAVYYCARRYGTSYPDYGDANGFDPWGQGTLVTVSS VL: DIVMTQSPDSLAVSLGERATINCKSSQSISSYLIWYQQKPGQPPKLLIYRASTLASGVPDRFSGSGSGTDFTLTISSLQAEDVAVYYCQQAYSSSNVDNTFGGGTKVEIK
